B1: glmS ribozyme (parent)
chain: AUAAAAGCGCCAGAACUACAGAAAUGUAGUUGACGAGGAGGAGGUUUAUCGAAUUUUCGGCGGAUGCCUCCAAA

What all share (conditions): with glucosamine-6-phosphate
Variants of B1 are the subject of data set [1]. As to the kind of experiment: kcat; higher = faster cleavage; RNA array. Put shortly:
(§1)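 Tracking of barcoded ribozyme variants used a hybridised Cy3 probe at 37 °C, after in situ transcription by E. coli RNA polymerase on sequenced MiSeq chips. The flowed solution held 40 μM to 10 mM glucosamine-6-phosphate in HEPES/KCl/Mg(OAc)2 buffer, and imaging ran over ~14 h. kobs was taken from exponential decay fits of normalised per-tile medians, and kcat and KM from weighted Michaelis–Menten fits.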

In data set [2] the parent is B1. As to the kind of experiment: KM; higher = weaker cofactor use; RNA array. The procedure, abridged: as §1
Data set [3] covers variants of B1. As to the kind of experiment: self-cleavage kobs at 160 uM GlcN6P; higher = faster cleavage; RNA array. The procedure, abridged: as §1
The variants in data set [4] derive from B1. As to the kind of experiment: self-cleavage kobs at 640 uM GlcN6P; higher = faster cleavage; RNA array. The procedure, abridged:
as §1

In data set [5] the parent is B1. The data set can be described thus: self-cleavage kobs at 2500 uM GlcN6P; higher = faster cleavage; RNA array. Put shortly:
as §1

In data set [6] the parent is B1. The data set can be described thus: self-cleavage kobs at 10000 uM GlcN6P; higher = faster cleavage; RNA array. Put shortly: as §1
In data set [7] the parent is B1. The data set can be described thus: self-cleavage kobs at 40 uM GlcN6P; higher = faster cleavage; RNA array. The procedure, abridged:
as §1

This is an account of results in the supplement of paper PMC7125110.

As a reminder, the kcat is the number of substrate molecules converted per active site and unit of time at saturation. The term KM denotes the concentration of substrate that gives half-maximal velocity.

± gives the standard error. For part of these data: This sample holds only a part of the variants without activity.

Take AUAAAAGCGCCAGAACUACAGAAAUGUAGUUGACGAGGAGUAGGUAUAUCGAAUUUUCGGCGGAUGCCUCCAAA: in the data set with glucosamine-6-phosphate [1], the kcat was determined as 0.000481 ± 0.0001 s⁻¹. Also, the Michaelis constant (KM) in the data set with glucosamine-6-phosphate [2] was 2400 ± 860 µM. Besides, the “self-cleavage kobs at 160 uM GlcN6P” value with glucosamine-6-phosphate [3] was 4.83e-05 ± 1.9e-05 s⁻¹. In addition, the “self-cleavage kobs at 640 uM GlcN6P” value in the data set with glucosamine-6-phosphate [4] was found to be 9.28e-05 ± 1.2e-05 s⁻¹. The “self-cleavage kobs at 2500 uM GlcN6P” value in the data set with glucosamine-6-phosphate [5] came out at 0.000324 ± 5.4e-05 s⁻¹. In the data set with glucosamine-6-phosphate [6], the “self-cleavage kobs at 10000 uM GlcN6P” value amounted to 0.000362 ± 5.7e-05 s⁻¹.
As to AUAAAAGCGCUAGAACUACAGAAAUGUAGUUGACGAGGAGGAGGUUUAUCGAAUUCUCGGCGGAUGCCUCCAAA, the turnover number (kcat) with glucosamine-6-phosphate [1] amounted to 0.000248 ± 5e-05 s⁻¹. Moreover, the Michaelis constant (KM) in the data set with glucosamine-6-phosphate [2] turned out to be 2260 ± 1000 µM. The “self-cleavage kobs at 640 uM GlcN6P” value with glucosamine-6-phosphate [4] was 4.51e-05 ± 9.7e-06 s⁻¹. The “self-cleavage kobs at 2500 uM GlcN6P” value with glucosamine-6-phosphate [5] was found to be 0.000176 ± 2.3e-05 s⁻¹. Further, in the data set with glucosamine-6-phosphate [6], the “self-cleavage kobs at 10000 uM GlcN6P” value is 0.000188 ± 2.3e-05 s⁻¹.
For the variant AUAAAAGCGCCAGAACUACAGAAAUGUAGUUGACGAGAAGGAGGUUUAUCGAAUUUUCGGCGGAUGACUCCAAA, the catalytic constant (kcat) in the data set with glucosamine-6-phosphate [1] was < 1e-05 s⁻¹. Besides, the “self-cleavage kobs at 40 uM GlcN6P” value in the data set with glucosamine-6-phosphate [7] is < 1e-05 s⁻¹.
Regarding AUAAAAGCGCCAGAACUACAGAAAUGUAGUUGACGAGGAGGAGGUUUAUCGAAUGUUCGGCGGAUGCCACCAAA, the kcat with glucosamine-6-phosphate [1] came to 0.000144 ± 3.5e-05 s⁻¹. In the data set with glucosamine-6-phosphate [7], the “self-cleavage kobs at 40 uM GlcN6P” value is 4.44e-05 ± 1.1e-05 s⁻¹. For the same variant, the “self-cleavage kobs at 160 uM GlcN6P” value in the data set with glucosamine-6-phosphate [3] was determined as 7.03e-05 ± 9.5e-06 s⁻¹. The “self-cleavage kobs at 640 uM GlcN6P” value with glucosamine-6-phosphate [4] was found to be 0.00015 ± 1.9e-05 s⁻¹. Further, in the data set with glucosamine-6-phosphate [5], the “self-cleavage kobs at 2500 uM GlcN6P” value stood at 0.00021 ± 2.3e-05 s⁻¹. In addition, the “self-cleavage kobs at 10000 uM GlcN6P” value with glucosamine-6-phosphate [6] came out at 9.83e-05 ± 1.7e-05 s⁻¹.
Turning to AUAAAAGCGCCAGACCUACAGAAAUGUAGUUGACGAGGAAGAGGUUUAUCGAAUUUUCGGCGGAUGCCUCCAAA, the catalytic constant (kcat) in the data set with glucosamine-6-phosphate [1] was 0.000642 ± 0.00018 s⁻¹. Moreover, the KM with glucosamine-6-phosphate [2] stood at 1860 ± 840 µM. Also, the “self-cleavage kobs at 40 uM GlcN6P” value with glucosamine-6-phosphate [7] stood at 2.42e-05 ± 9.8e-06 s⁻¹. Also, the “self-cleavage kobs at 160 uM GlcN6P” value in the data set with glucosamine-6-phosphate [3] is 8.81e-05 ± 2.4e-05 s⁻¹. Further, in the data set with glucosamine-6-phosphate [4], the “self-cleavage kobs at 640 uM GlcN6P” value came out at 0.000149 ± 2e-05 s⁻¹. Moreover, the “self-cleavage kobs at 2500 uM GlcN6P” value with glucosamine-6-phosphate [5] worked out at 0.000365 ± 7.3e-05 s⁻¹. In addition, the “self-cleavage kobs at 10000 uM GlcN6P” value in the data set with glucosamine-6-phosphate [6] stood at 0.000584 ± 0.00012 s⁻¹.
For the variant AUAAAAGCGCCAGAACUACAGAAAUGUAGUUGACGAGGAGGAGGUUUAUCGGAUUUUCGGCGGAUGCGUCCAAA, the kcat with glucosamine-6-phosphate [1] was 5.61e-05 ± 9.7e-06 s⁻¹. Further, the “self-cleavage kobs at 640 uM GlcN6P” value in the data set with glucosamine-6-phosphate [4] was determined as 6.55e-05 ± 1.4e-05 s⁻¹. Also, the “self-cleavage kobs at 2500 uM GlcN6P” value with glucosamine-6-phosphate [5] was determined as 7.16e-05 ± 1.2e-05 s⁻¹. Also, the “self-cleavage kobs at 10000 uM GlcN6P” value in the data set with glucosamine-6-phosphate [6] worked out at 4.28e-05 ± 8.7e-06 s⁻¹.
As to AUAAAGGCGCCAGAACUACAGAAAUGUAGUUGACGAGGAGGAGGUUUAUCGAAUGUUCGGCGGAUGCCUCCAAA, the turnover number (kcat) with glucosamine-6-phosphate [1] worked out at 0.000588 ± 4.1e-05 s⁻¹. Also, the KM in the data set with glucosamine-6-phosphate [2] came to 2390 ± 350 µM. For the same variant, the “self-cleavage kobs at 640 uM GlcN6P” value in the data set with glucosamine-6-phosphate [4] worked out at 0.000133 ± 3.4e-05 s⁻¹. For the same variant, the “self-cleavage kobs at 2500 uM GlcN6P” value in the data set with glucosamine-6-phosphate [5] is 0.000299 ± 5.2e-05 s⁻¹. The “self-cleavage kobs at 10000 uM GlcN6P” value with glucosamine-6-phosphate [6] came to 0.000473 ± 7.8e-05 s⁻¹.
For AUAAACGCGCCAGAACUACAGAAAUGUAGUUGACGAGGAGGAGGUUUAUCGAAUUUUCGGCGGAUGCUUCCAAA, the catalytic constant (kcat) in the data set with glucosamine-6-phosphate [1] came to 4.51e-05 ± 1.8e-06 s⁻¹. Besides, the Michaelis-Menten constant (KM) with glucosamine-6-phosphate [2] is 534 ± 140 µM. Also, in the data set with glucosamine-6-phosphate [5], the “self-cleavage kobs at 2500 uM GlcN6P” value came to 3.96e-05 ± 9.1e-06 s⁻¹. The “self-cleavage kobs at 10000 uM GlcN6P” value with glucosamine-6-phosphate [6] was found to be 4.19e-05 ± 6.8e-06 s⁻¹.
